Test results reported in patent publication US20250011363A1, “OPTIMIZED SHORTENED PEPTIDE THAT BINDS TO ACETYLCHOLINE RECEPTOR, AND USE THEREOF” (SKINMED CO., LTD., priority 2021, published 2025).

Each substance was assayed against acetylcholine receptor (Homo sapiens, UniProt P02708) (assay: SPR binding affinity (RU) of optimized 5mer/6mer/7mer peptides, Examples 6-7). Details: 6mer-1 Top sequence; SPR; peptides tested at 10 μM.
Method in brief: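 Response units from SPR give the binding values listed. Each synthesized peptide was run at 10 μM over the receptor.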

acetylcholine receptor, sequence (P02708 21-457): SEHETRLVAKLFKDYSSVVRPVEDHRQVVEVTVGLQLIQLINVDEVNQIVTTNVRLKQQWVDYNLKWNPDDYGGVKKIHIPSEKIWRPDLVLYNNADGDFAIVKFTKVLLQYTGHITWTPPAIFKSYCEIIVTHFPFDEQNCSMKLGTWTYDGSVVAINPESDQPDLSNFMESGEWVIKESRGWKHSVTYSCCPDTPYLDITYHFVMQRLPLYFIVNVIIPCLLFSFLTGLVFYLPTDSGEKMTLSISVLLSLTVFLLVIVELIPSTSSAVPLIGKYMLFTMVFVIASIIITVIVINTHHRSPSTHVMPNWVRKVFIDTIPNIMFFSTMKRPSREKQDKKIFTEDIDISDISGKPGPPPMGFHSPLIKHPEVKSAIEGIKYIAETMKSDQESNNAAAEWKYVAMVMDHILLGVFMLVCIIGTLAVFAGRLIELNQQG

Q: With 6mer-1-280 (RKLQCK) as the substance, how does the Binding affinity read?
A: 149 Ru

Q: 6mer-1-338 (KKQVLK) was tested. Which Binding affinity did it give?
A: 127 Ru

Q: With 6mer-1-356 (KRGYSK) as the substance, how does the Binding affinity read?
A: 153 Ru

Q: Which Binding affinity does the source give for 6mer-1-347 (KKQQSK) here?
A: 126 Ru

Q: With 6mer-1-291 (KKQIRK) as the substance, how does the Binding affinity read?
A: 142 Ru

Q: How did the Binding affinity turn out when 6mer-1-215 (RKRYSR) was run?
A: 136 Ru

Same assay, conditions: 6mer-2 Top sequence; SPR; peptides tested at 10 μM

Q: 6mer-2-36 (RRLQKK) was tested. Which Binding affinity did it give?
A: 131 Ru

Q: Which Binding affinity does the source give for 6mer-2-145 (RQYYKK) here?
A: 128 Ru

Q: 6mer-2-184 (KWVSRR) was tested. Which Binding affinity did it give?
A: 136 Ru

Q: For 6mer-2-72 (KRIQKK), which Binding affinity is on record?
A: 144 Ru

Q: With 6mer-2-142 (RWVLRR) as the substance, how does the Binding affinity read?
A: 121 Ru

Q: For 6mer-2-89 (KSRSKK), which Binding affinity is on record?
A: 141 Ru

Q: For 6mer-2-122 (RVITKK), which Binding affinity is on record?
A: 125 Ru

Q: For 6mer-2-23 (RWVRKK), which Binding affinity is on record?
A: 148 Ru

Q: For 6mer-2-105 (RGFTRR), which Binding affinity is on record?
A: 151 Ru

Same assay, conditions: SPR, Resonance Units; 5mer Bottom sequence (bottom combinations); peptides tested at 10 μM

Q: 5mer-792 (RMEKK) was tested. Which Binding affinity did it give?
A: 31 Ru

Q: 5mer-1047 (KAHMR) was tested. Which Binding affinity did it give?
A: 23 Ru

Q: Which Binding affinity does the source give for 5mer-656 (KATGR) here?
A: 13 Ru

Q: Which Binding affinity does the source give for 5mer-696 (RCEHR) here?
A: 11 Ru

Q: For 5mer-1069 (RPSFK), which Binding affinity is on record?
A: 31 Ru

Q: How did the Binding affinity turn out when 5mer-611 (KDHIR) was run?
A: 33 Ru

Q: 5mer-624 (KEHER) was tested. Which Binding affinity did it give?
A: 22 Ru

Q: With 5mer-775 (RHTVK) as the substance, how does the Binding affinity read?
A: 23 Ru

Q: Which Binding affinity does the source give for 5mer-729 (KEPDK) here?
A: 23 Ru

Q: 5mer-1023 (RYCKK) was tested. Which Binding affinity did it give?
A: 13 Ru

Q: For 5mer-1049 (KPPGR), which Binding affinity is on record?
A: 29 Ru

Q: For 5mer-971 (KMTGK), which Binding affinity is on record?
A: 12 Ru

Q: How did the Binding affinity turn out when 5mer-740 (RMMGK) was run?
A: 21 Ru

Same assay, conditions: SPR, Resonance Units; peptides tested at 10 μM; 6mer-1 Bottom sequence

Q: Which Binding affinity does the source give for 6mer-1-1179 (KRMTPR) here?
A: 40 Ru

Q: For 6mer-1-1137 (KRFTDK), which Binding affinity is on record?
A: 33 Ru

Q: With 6mer-1-1043 (KRAAHR) as the substance, how does the Binding affinity read?
A: 30 Ru

Q: 6mer-1-1113 (RRCTMK) was tested. Which Binding affinity did it give?
A: 28 Ru

Q: How did the Binding affinity turn out when 6mer-1-1141 (KRNMHK) was run?
A: 40 Ru

Same assay, conditions: SPR, Resonance Units; peptides tested at 10 μM; 6mer-1 Bottom sequence (Table 11)

Q: With 6mer-1-669 (KRNMAK) as the substance, how does the Binding affinity read?
A: 23 Ru

Q: With 6mer-1-708 (KKKHEK) as the substance, how does the Binding affinity read?
A: 14 Ru

Q: 6mer-1-691 (RKPKAR) was tested. Which Binding affinity did it give?
A: 31 Ru

Q: 6mer-1-781 (RRHWDK) was tested. Which Binding affinity did it give?
A: 16 Ru

Q: Which Binding affinity does the source give for 6mer-1-610 (KKHHER) here?
A: 27 Ru

Q: For 6mer-1-736 (KKATDK), which Binding affinity is on record?
A: 15 Ru

Same assay, conditions: SPR, Resonance Units; peptides tested at 10 μM; 6mer-2 Bottom sequence

Q: With 6mer-2-915 (KNCWKR) as the substance, how does the Binding affinity read?
A: 29 Ru

Q: Which Binding affinity does the source give for 6mer-2-765 (KHSPRK) here?
A: 23 Ru

Q: How did the Binding affinity turn out when 6mer-2-783 (RDMVRK) was run?
A: 32 Ru

Q: How did the Binding affinity turn out when 6mer-2-736 (KNNHKK) was run?
A: 29 Ru

Q: How did the Binding affinity turn out when 6mer-2-652 (RTTMRK) was run?
A: 16 Ru

Q: How did the Binding affinity turn out when 6mer-2-989 (KAHNKR) was run?
A: 22 Ru

Q: Which Binding affinity does the source give for 6mer-2-699 (KNAGKR) here?
A: 23 Ru

Q: Which Binding affinity does the source give for 6mer-2-704 (KDWHRK) here?
A: 20 Ru

Q: With 6mer-2-841 (KPNHRK) as the substance, how does the Binding affinity read?
A: 33 Ru

Q: How did the Binding affinity turn out when 6mer-2-983 (RTWHRR) was run?
A: 37 Ru

Q: 6mer-2-714 (KIDVRK) was tested. Which Binding affinity did it give?
A: 30 Ru

Q: 6mer-2-648 (RYPDRK) was tested. Which Binding affinity did it give?
A: 23 Ru

Same assay, conditions: SPR, Resonance Units; peptides tested at 10 μM; 6mer-2 Top sequence

Q: How did the Binding affinity turn out when 6mer-2-600 (RSQLKK) was run?
A: 139 Ru

Q: Which Binding affinity does the source give for 6mer-2-568 (KGFQKK) here?
A: 142 Ru

Q: With 6mer-2-515 (RWYCRK) as the substance, how does the Binding affinity read?
A: 123 Ru

Q: With 6mer-2-535 (KLFCRR) as the substance, how does the Binding affinity read?
A: 133 Ru

Same assay, conditions: SPR, Resonance Units; peptides tested at 10 μM; 6mer-2 Top sequence (Table 12)

Q: How did the Binding affinity turn out when 6mer-2-394 (KLVLKR) was run?
A: 141 Ru

Q: With 6mer-2-249 (RGLRKR) as the substance, how does the Binding affinity read?
A: 136 Ru

Q: With 6mer-2-364 (KVFTKK) as the substance, how does the Binding affinity read?
A: 154 Ru

Q: 6mer-2-385 (RGVCKR) was tested. Which Binding affinity did it give?
A: 154 Ru

Q: How did the Binding affinity turn out when 6mer-2-225 (KRLLRR) was run?
A: 145 Ru

Q: Which Binding affinity does the source give for 6mer-2-240 (RRRCRK) here?
A: 142 Ru

Q: For 6mer-2-311 (KVVTRK), which Binding affinity is on record?
A: 147 Ru

Q: With 6mer-2-389 (KSLYKK) as the substance, how does the Binding affinity read?
A: 153 Ru

Q: 6mer-2-324 (KLQSRK) was tested. Which Binding affinity did it give?
A: 139 Ru

Same assay, conditions: SPR, peptides at 10 μM; 6mer-2 Bottom sequence

Q: For 6mer-2-1098 (KHPKRR), which Binding affinity is on record?
A: 28 Ru

Q: For 6mer-2-1104 (RYTKKR), which Binding affinity is on record?
A: 38 Ru

Q: 6mer-2-1009 (KINPRK) was tested. Which Binding affinity did it give?
A: 34 Ru

Q: How did the Binding affinity turn out when 6mer-2-1008 (RAWKKR) was run?
A: 38 Ru

Q: 6mer-2-1079 (KCNEKK) was tested. Which Binding affinity did it give?
A: 40 Ru

Q: How did the Binding affinity turn out when 6mer-2-1185 (RIDAKK) was run?
A: 42 Ru

Same assay, conditions: SPR, peptides tested at 10 μM; 5mer Top sequence

Q: Which Binding affinity does the source give for 5mer-85 (KGVLK) here?
A: 74 Ru

Q: Which Binding affinity does the source give for 5mer-39 (KQVSR) here?
A: 67 Ru

Q: 5mer-59 (KLQYR) was tested. Which Binding affinity did it give?
A: 68 Ru

Q: Which Binding affinity does the source give for 5mer-3 (KRVLK) here?
A: 66 Ru

Q: How did the Binding affinity turn out when 5mer-460 (RLQQR) was run?
A: 74 Ru

Q: For 5mer-408 (KVFRK), which Binding affinity is on record?
A: 74 Ru

Q: 5mer-323 (KWYYR) was tested. Which Binding affinity did it give?
A: 77 Ru

Q: With 5mer-98 (KWYCK) as the substance, how does the Binding affinity read?
A: 68 Ru

Q: Which Binding affinity does the source give for 5mer-353 (KSQLK) here?
A: 59 Ru

Same assay, conditions: SPR, peptides tested at 10 μM; 5mer Top sequence (top combinations)

Q: With 5mer-575 (KGFYR) as the substance, how does the Binding affinity read?
A: 69 Ru

Q: With 5mer-531 (KRQSR) as the substance, how does the Binding affinity read?
A: 65 Ru

Q: How did the Binding affinity turn out when 5mer-267 (KRLLK) was run?
A: 66 Ru

Q: How did the Binding affinity turn out when 5mer-595 (KWQQR) was run?
A: 58 Ru

Q: Which Binding affinity does the source give for 5mer-545 (KGQYR) here?
A: 80 Ru

Q: How did the Binding affinity turn out when 5mer-585 (RSVSK) was run?
A: 74 Ru

Q: For 5mer-232 (KWYTR), which Binding affinity is on record?
A: 71 Ru

Same assay, conditions: SPR, peptides tested at 10 μM; 6mer-1 Bottom sequence (Table 11)

Q: With 6mer-1-822 (KREPIK) as the substance, how does the Binding affinity read?
A: 17 Ru

Q: 6mer-1-798 (RRDCFR) was tested. Which Binding affinity did it give?
A: 18 Ru

Q: Which Binding affinity does the source give for 6mer-1-928 (KRYCPK) here?
A: 30 Ru

Q: Which Binding affinity does the source give for 6mer-1-942 (RRMMVR) here?
A: 37 Ru

Q: With 6mer-1-851 (RRYMEK) as the substance, how does the Binding affinity read?
A: 30 Ru

Q: 6mer-1-880 (KRPMDK) was tested. Which Binding affinity did it give?
A: 21 Ru

Same assay, conditions: SPR, peptides tested at 10 μM; 6mer-1 Top sequence

Q: With 6mer-1-598 (RKWLSK) as the substance, how does the Binding affinity read?
A: 142 Ru

Q: Which Binding affinity does the source give for 6mer-1-532 (KKSQLR) here?
A: 121 Ru

Q: 6mer-1-555 (KKWYLK) was tested. Which Binding affinity did it give?
A: 128 Ru

Q: 6mer-1-492 (RRWRQK) was tested. Which Binding affinity did it give?
A: 139 Ru

Q: For 6mer-1-430 (KKQLQK), which Binding affinity is on record?
A: 144 Ru

Q: How did the Binding affinity turn out when 6mer-1-443 (RKVLLK) was run?
A: 145 Ru

Q: Which Binding affinity does the source give for 6mer-1-448 (RKRFSR) here?
A: 141 Ru

Q: For 6mer-1-468 (RRLYRR), which Binding affinity is on record?
A: 153 Ru

Same assay, conditions: SPR, peptides tested at 10 μM; 6mer-1 Top sequence (top combinations)

Q: Which Binding affinity does the source give for 6mer-1-186 (RRRVYK) here?
A: 147 Ru

Q: Which Binding affinity does the source give for 6mer-1-11 (KRQFTK) here?
A: 139 Ru

Q: How did the Binding affinity turn out when 6mer-1-185 (KRQLRK) was run?
A: 153 Ru

Q: With 6mer-1-192 (KRQYQR) as the substance, how does the Binding affinity read?
A: 127 Ru

Q: With 6mer-1-27 (KRSFTK) as the substance, how does the Binding affinity read?
A: 142 Ru

Q: For 6mer-1-172 (RRLIRK), which Binding affinity is on record?
A: 153 Ru

Same assay, conditions: SPR; XRRGVRR-7mer and RRGVRRX-7mer

Q: 3674 (RRGVRRN) [compound 3674] was tested. Which “Binding affinity, values relative to the RRGVRR sequence” value did it give?
A: 105

Q: Which “Binding affinity, values relative to the RRGVRR sequence” value does the source give for 3672 (RRGVRRT) [compound 3672] here?
A: 113

Q: How did the “Binding affinity, values relative to the RRGVRR sequence” value turn out when 3656 (KRRGVRR) [compound 3656] was run?
A: 169

Same assay, conditions: SPR; XRRQRR-6mer and RRQRRX-6mer

Q: 3609 (WRRQRR) [compound 3609] was tested. Which “Binding affinity, relative value to the RRQRR sequence” value did it give?
A: 138

Q: 3631 (RRQRRS) [compound 3631] was tested. Which “Binding affinity, relative value to the RRQRR sequence” value did it give?
A: 113

Same assay, conditions: SPR; peptides tested at 10 μM; 5mer Bottom sequence

Q: Which Binding affinity does the source give for 5mer-883 (KMSAK) here?
A: 16 Ru

Q: With 5mer-831 (RAAGK) as the substance, how does the Binding affinity read?
A: 24 Ru

Q: With 5mer-1177 (KIPVR) as the substance, how does the Binding affinity read?
A: 20 Ru

Q: With 5mer-1187 (KHHIR) as the substance, how does the Binding affinity read?
A: 27 Ru

Q: 5mer-871 (RHSHR) was tested. Which Binding affinity did it give?
A: 21 Ru

Q: How did the Binding affinity turn out when 5mer-857 (KMENR) was run?
A: 23 Ru

Q: 5mer-1196 (RICIR) was tested. Which Binding affinity did it give?
A: 24 Ru
